From the supplement of paper PMC11246515
± gives the standard deviation of the averaged measurements.

Assay: total protein half-life in vivo (active degradation + dilution); higher = more stable protein
[1] = E. coli NCM3722 delta-clpP delta-lon delta-hslV, growth: N-lim chemostat, doubling time 6 h
[2] = E. coli NCM3722 delta-clpP, growth: N-lim chemostat, doubling time 6 h
[3] = E. coli NCM3722 delta-hslV, growth: N-lim chemostat, doubling time 6 h
[4] = E. coli NCM3722 delta-lon, growth: N-lim chemostat, doubling time 6 h
[5] = E. coli NCM3722 delta-smpB, growth: N-lim chemostat, doubling time 6 h
[6] = wild type E. coli NCM3722, growth: C-lim chemostat, doubling time 3 h
[7] = wild type E. coli NCM3722, growth: C-lim chemostat, doubling time 6 h
[8] = wild type E. coli NCM3722, growth: C-lim chemostat, doubling time 12 h
[9] = wild type E. coli NCM3722, growth: N-lim chemostat, doubling time 6 h
[10] = wild type E. coli NCM3722, growth: N-lim chemostat, doubling time 12 h
[11] = wild type E. coli NCM3722, growth: P-lim chemostat, doubling time 6 h
[12] = wild type E. coli NCM3722, growth: P-lim chemostat, doubling time 12 h

| Sequence | total protein half-life in vivo [1] | total protein half-life in vivo [2] | total protein half-life in vivo [3] | total protein half-life in vivo [4] | total protein half-life in vivo [5] | total protein half-life in vivo [6] | total protein half-life in vivo [7] | total protein half-life in vivo [8] | total protein half-life in vivo [9] | total protein half-life in vivo [10] | total protein half-life in vivo [11] | total protein half-life in vivo [12] |
| --- | --- | --- | --- | --- | --- | --- | --- | --- | --- | --- | --- | --- |
| MEKAKQVTWRLLAAGVCLLTVSSVARADSLDEQRSRYAQIKQAWDNRQMDVVEQMMPGLKDYPLYPYLEYRQITDDLMNQPAVTVTNFVRANPTLPPARTLQSRFVNELARREDWRGLLAFSPEKPGTTEAQCNYYYAKWNTGQSEEAWQGAKELWLTGKSQPNACDKLFSVWRASGKQDPLAYLERIRLAMKAGNTGLVTVLAGQMPADYQTIASAIISLANNPNTVLTFARTTGATDFTRQMAAVAFASVARQDAENARLMIPSLAQAQQLNEDQIQELRDIVAWRLMGNDVTDEQAKWRDDAIMRSQSTSLIERRVRMALGTGDRRGLNTWLARLPMEAKEKDEWRYWQADLLLERGREAEAKEILHQLMQQRGFYPMVAAQRIGEEYELKIDKAPQNVDSALTQGPEMARVRELMYWNLDNTARSEWANLVKSKSKTEQAQLARYAFNNQWWDLSVQATIAGKLWDHLEERFPLAYNDLFKRYTSGKEIPQSYAMAIARQESAWNPKVKSPVGASGLMQIMPGTATHTVKMFSIPGYSSPGQLLDPETNINIGTSYLQYVYQQFGNNRIFSSAAYNAGPGRVRTWLGNSAGRIDAVAFVESIPFSETRGYVKNVLAYDAYYRYFMGDKPTLMSATEWGRRY [P0AGC3] | 5.924 ± 0.022 h | 6.7 ± 0.89 h | 6.326 ± 0.06 h | 6.53 ± 0.35 h | 6.054 ± 0.043 h | 3.16 ± 0.12 h | 6.34 ± 0.25 h | 12 ± 2.2 h | 6.29 ± 0.41 h | 12.2 ± 0.23 h | 6.07 ± 0.19 h | 12.3 ± 0.39 h |
| MFRQLKKNLVATLIAAMTIGQVAPAFADSADTLPDMGTSAGSTLSIGQEMQMGDYYVRQLRGSAPLINDPLLTQYINSLGMRLVSHANSVKTPFHFFLINNDEINAFAFFGGNVVLHSALFRYSDNESQLASVMAHEISHVTQRHLARAMEDQQRSAPLTWVGALGSILLAMASPQAGMAALTGTLAGTRQGMISFTQQNEQEADRIGIQVLQRSGFDPQAMPTFLEKLLDQARYSSRPPEILLTHPLPESRLADARNRANQMRPMVVQSSEDFYLAKARTLGMYNSGRNQLTSDLLDEWAKGNVRQQRAAQYGRALQAMEANKYDEARKTLQPLLAAEPGNAWYLDLATDIDLGQNKANEAINRLKNARDLRTNPVLQLNLANAYLQGGQPQEAANILNRYTFNNKDDSNGWDLLAQAEAALNNRDQELAARAEGYALAGRLDQAISLLSSASSQVKLGSLQQARYDARIDQLRQLQERFKPYTKM | 4.342 ± 0.022 h | 5.12 ± 1.1 h | 4.86 ± 0.098 h | 4.52 ± 0.32 h | 4.35 ± 0.05 h | 2.7 ± 0.2 h | 5.08 ± 0.19 h | 9.19 ± 1.1 h | 4.73 ± 0.033 h | 8.19 ± 1.1 h | 3.46 ± 0.47 h | 7.12 ± 1.7 h |
| MSTPRQILAAIFDMDGLLIDSEPLWDRAELDVMASLGVDISRRNELPDTLGLRIDMVVDLWYARQPWNGPSRQEVVERVIARAISLVEETRPLLPGVREAVALCKEQGLLVGLASASPLHMLEKVLTMFDLRDSFDALASAEKLPYSKPHPQVYLDCAAKLGVDPLTCVALEDSVNGMIASKAARMRSIVVPAPEAQNDPRFVLADVKLSSLTELTAKDLLG | 4.76 ± 0.9 h | 5.14 ± 0.84 h | 4.544 ± 0.045 h | 5.444 ± 0.011 h | 4.27 ± 0.18 h | 2.99 ± 0.3 h | 5.48 ± 0.35 h | 12.1 ± 3 h | 4.47 ± 0.14 h | 8.91 ± 1.3 h | 5.65 ± 0.52 h | 12.3 ± 0.28 h |
| MFTATEAVPVAKVVAGNKRYPGVVALDNVNFTLNKGEVRALLGKNGAGKSTLIRMLTGSERPDSGDIWIGETRLEGDEATLTRRAAELGVRAVYQELSLVEGLTVAENLCLGQWPRRNGMIDYLQMAQDAQRCLQALGVDVSPEQLVSTLSPAQKQLVEIARVMKGEPRVVILDEPTSSLASAEVELVISAVKKMSALGVAVIYVSHRMEEIRRIASCATVMRDGQVAGDVMLENTSTHHIVSLMLGRDHVDIAPVAPQEIVDQAVLEVRALRHKPKLEDISFTLRRGEVLGIAGLLGAGRSELLKAIVGLEEYEQGEIVINGEKITRPDYGDMLKRGIGYTPENRKEAGIIPWLGVDENTVLTNRQKISANGVLQWSTIRRLTEEVMQRMTVKAASSETPIGTLSGGNQQKVVIGRWVYAASQILLLDEPTRGVDIEAKQQIYRIVRELAAEGKSVVFISSEVEELPLVCDRILLLQHGTFSQEFHAPVNVDELMSAILSVH | – | – | – | – | – | – | – | 7.2 ± 4.9 h | – | – | 4.92 h | – |
| MDSHTLIQALIYLGSAALIVPIAVRLGLGSVLGYLIAGCIIGPWGLRLVTDAESILHFAEIGVVLMLFIIGLELDPQRLWKLRAAVFGCGALQMVICGGLLGLFCMLLGLRWQVAELIGMTLALSSTAIAMQAMNERNLMVTQMGRSAFAVLLFQDIAAIPLVAMIPLLATSSASTTMGAFALSALKVAGALVLVVLLGRYVTRPALRFVARSGLREVFSAVALFLVFGFGLLLEEVGLSMAMGAFLAGVLLASSEYRHALESDIEPFKGLLLGLFFIGVGMSIDFGTLLENPLRIVILLLGFLIIKIAMLWLIARPLQVPNKQRRWFAVLLGQGSEFAFVVFGAAQMANVLEPEWAKSLTLAVALSMAATPILLVILNRLEQSSTEEAREADEIDEEQPRVIIAGFGRFGQITGRLLLSSGVKMVVLDHDPDHIETLRKFGMKVFYGDATRMDLLESAGAAKAEVLINAIDDPQTNLQLTEMVKEHFPHLQIIARARDVDHYIRLRQAGVEKPERETFEGALKTGRLALESLGLGPYEARERADVFRRFNIQMVEEMAMVENDTKARAAVYKRTSAMLSEIITEDREHLSLIQRHGWQGTEEGKHTGNMADEPETKPSS | – | 7.26 ± 1 h | 6.68 ± 1.4 h | 6.07 ± 0.42 h | 6.12 ± 0.22 h | 3.62 ± 0.14 h | 6.07 ± 0.45 h | 13.1 ± 0.2 h | 6.452 ± 0.033 h | 11.9 ± 1.1 h | 6.64 ± 0.37 h | 12.2 ± 1.2 h |
| MEKTYNPQDIEQPLYEHWEKQGYFKPNGDESQESFCIMIPPPNVTGSLHMGHAFQQTIMDTMIRYQRMQGKNTLWQVGTDHAGIATQMVVERKIAAEEGKTRHDYGREAFIDKIWEWKAESGGTITRQMRRLGNSVDWERERFTMDEGLSNAVKEVFVRLYKEDLIYRGKRLVNWDPKLRTAISDLEVENRESKGSMWHIRYPLADGAKTADGKDYLVVATTRPETLLGDTGVAVNPEDPRYKDLIGKYVILPLVNRRIPIVGDEHADMEKGTGCVKITPAHDFNDYEVGKRHALPMINILTFDGDIRESAQVFDTKGNESDVYSSEIPAEFQKLERFAARKAVVAAVDALGLLEEIKPHDLTVPYGDRGGVVIEPMLTDQWYVRADVLAKPAVEAVENGDIQFVPKQYENMYFSWMRDIQDWCISRQLWWGHRIPAWYDEAGNVYVGRNEDEVRKENNLGADVVLRQDEDVLDTWFSSALWTFSTLGWPENTDALRQFHPTSVMVSGFDIIFFWIARMIMMTMHFIKDENGKPQVPFHTVYMTGLIRDDEGQKMSKSKGNVIDPLDMVDGISLPELLEKRTGNMMQPQLADKIRKRTEKQFPNGIEPHGTDALRFTLAALASTGRDINWDMKRLEGYRNFCNKLWNASRFVLMNTEGQDCGFNGGEMTLSLADRWILAEFNQTIKAYREALDSFRFDIAAGILYEFTWNQFCDWYLELTKPVMNGGTEAELRGTRHTLVTVLEGLLRLAHPIIPFITETIWQRVKVLCGITADTIMLQPFPQYDASQVDEAALADTEWLKQAIVAVRNIRAEMNIAPGKPLELLLRGCSADAERRVNENRGFLQTLARLESITVLPADDKGPVSVTKIIDGAELLIPMAGLINKEDELARLAKEVAKIEGEISRIENKLANEGFVARAPEAVIAKEREKLEGYAEAKAKLIEQQAVIAAL | 5.35 ± 0.76 h | 5.48 ± 1.1 h | 4.68 ± 0.11 h | 5.17 ± 0.062 h | 4.417 ± 0.013 h | 3 ± 0.27 h | 5.796 ± 0.013 h | 10.5 ± 0.32 h | 4.721 ± 0.046 h | 7.86 ± 0.2 h | 5.92 ± 0.23 h | 10.7 ± 0.61 h |
